In patent publication US20100260765A1 (AstraZeneca / MedImmune, published 2010):
Positions count from the first letter of the chain named.

B1: 21A1 (antibody, V domains shown)
VH: QVQLVESGGGLVKPGGSLRLSCAASGFTFSDYYMSWIRQAPGKGLEWVSYISNSGITIYYADSVKGRFTISRDNAKNSLYLQMNSLRAGDTAVYYCAREEWYSSRWYRNFDYWGQGTLVTVSS
VL: DIQMTQFSSSLSASVGDRVTITCRASQSISRYLNWYQQKPGKAPKLLIYAASSLQSGVPSRFNGSGSGTDFTLTISSLQPEDFATYYCQQSYSAPLTFGGGTKVEIK
notes: Fully human mAb from XenoMouse hybridoma, tested as hybridoma supernatant
B2: 21H6 (antibody, V domains shown)
VH: B1 VH
VL: B1 VL
notes: as for B1
B3: 21H9 (antibody, V domains shown)
VH: QVPLVESGGGVVQPGRSLRLSCAASGFTFSSYGMHWVRQAPGKGLEWVAVIWYDGSNKYYADSVQGRFTISRDNSKNTLYLQMNSLRAEDTAVYYCARGVTMVRGLIIARYYYGLDVWGQGTTVTVSS
VL: DIVMTQTPLSSPVTFGQPASISCRSSQSLVHSDGNTYLSWLQQRPGQPPRLLIYKISNRFFGVPDRFSGSGAGTDFTLKISRVEAEDVGLYYCMQSTQFPLTFGGGTKVEIK
notes: as for B1
B4: 30D7 (antibody, V domains shown)
VH: B3 VH with Q65K, L106V
VL: B3 VL with F15L, S81G
notes: as for B1
B5: 22B8 (antibody, V domains shown)
VH: QLQLQESGPGLVKPSETLSLTCTVSGGSISSRYYYWGWVRQPPGKGLEWIGTIYYSGHTYYNPSLKTRVTISVDTSKNQFSLKLISVTAADTAVYYCATQQLVLYYFDFWGQGTLVTVSS
VL: EIVLTQSPGTLSLSPGERAALSCRASQSISSSYLAWYQQRPGQAPRLLIYGASSRATGIPDRFNGSGSGTDFTLTISRLEPEDFAVYYCQQFGSSITFGQGTRLEIK
notes: as for B1

What was measured:
[1] = target: T1, soluble KDR extracellular domain (ECD) (Calbiochem) (human, UniProt P35968 20-764); experiment: Limited Antigen ELISA, KDR coat 50 ng/mL, supernatant 1:25
T1 construct: extracellular domain; Bought protein; also called KDR-ECD; VEGF Receptor 2 D1-7, Cat. #676490
T1 sequence (P35968 20-764): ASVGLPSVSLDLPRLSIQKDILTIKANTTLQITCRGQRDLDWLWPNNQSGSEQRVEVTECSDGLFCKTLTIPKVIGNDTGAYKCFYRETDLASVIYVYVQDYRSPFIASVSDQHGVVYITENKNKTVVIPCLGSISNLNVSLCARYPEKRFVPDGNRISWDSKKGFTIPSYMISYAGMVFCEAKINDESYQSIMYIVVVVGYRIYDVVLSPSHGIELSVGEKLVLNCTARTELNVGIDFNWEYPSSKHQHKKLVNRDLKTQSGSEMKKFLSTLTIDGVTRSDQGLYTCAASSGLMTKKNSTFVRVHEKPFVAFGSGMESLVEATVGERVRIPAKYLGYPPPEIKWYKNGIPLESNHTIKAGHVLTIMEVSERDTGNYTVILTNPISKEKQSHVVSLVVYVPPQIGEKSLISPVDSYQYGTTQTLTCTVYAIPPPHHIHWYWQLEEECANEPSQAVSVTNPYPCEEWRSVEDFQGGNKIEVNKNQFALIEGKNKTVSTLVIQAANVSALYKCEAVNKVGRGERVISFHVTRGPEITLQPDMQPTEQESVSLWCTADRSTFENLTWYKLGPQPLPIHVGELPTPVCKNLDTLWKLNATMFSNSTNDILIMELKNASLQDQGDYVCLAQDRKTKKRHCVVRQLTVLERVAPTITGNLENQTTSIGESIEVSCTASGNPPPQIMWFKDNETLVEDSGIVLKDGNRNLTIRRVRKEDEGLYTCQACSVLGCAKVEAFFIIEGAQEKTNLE
Description: (§1) Samples containing one concentration of antibody (Ab) (1:25 dilution) were incubated overnight to allow Ab binding to approach equilibrium. The low antigen concentration limited the effect of antibody concentration, allowing ranking of the antibodies based on their relative affinity.

[2] = target: T1, soluble KDR extracellular domain (ECD) …; experiment: High Antigen ELISA, KDR coat 500 ng/mL, supernatant 1:75
Description: (§2) ELISA plates were coated with a greater amount of KDR (at 500 ng/mL) in comparison with the Limited Antigen Quantitation assay described below. Sample containing antibody (Ab) was titrated on the KDR-coated ELISA plates and was incubated overnight at 4° C. to allow Ab binding to approach equilibrium. Titration of Ab in sample covered a dilution range of 1:25 to 1:18,225. A standard curve of KDR-specific antibody of known concentration was used to define the linear range of the assay. Data within the linear range were used to derive the relative concentration of KDR-specific Ab in each titrated sample. The high KDR concentration and the overnight incubation limited the effect of Ab affinity, allowing quantitation of the relative amount of KDR-specific Ab present in each sample.

[3] = target: T1, soluble KDR extracellular domain (ECD) …; experiment: High Antigen ELISA, KDR coat 500 ng/mL, supernatant 1:675
Description: as §2

[4] = target: T1, soluble KDR extracellular domain (ECD) …; experiment: Limited Antigen ELISA, KDR coat 3.125 ng/mL, supernatant 1:25
Description: as §1

[5] = target: KDR endogenously expressed on human umbilical vein endothelial cells (HUVEC) (human, UniProt P35968 20-1356); experiment: cell-based or functional assay
Sequence of KDR endogenously expressed on human umbilical vein endothelial cells (HUVEC) (P35968 20-1356): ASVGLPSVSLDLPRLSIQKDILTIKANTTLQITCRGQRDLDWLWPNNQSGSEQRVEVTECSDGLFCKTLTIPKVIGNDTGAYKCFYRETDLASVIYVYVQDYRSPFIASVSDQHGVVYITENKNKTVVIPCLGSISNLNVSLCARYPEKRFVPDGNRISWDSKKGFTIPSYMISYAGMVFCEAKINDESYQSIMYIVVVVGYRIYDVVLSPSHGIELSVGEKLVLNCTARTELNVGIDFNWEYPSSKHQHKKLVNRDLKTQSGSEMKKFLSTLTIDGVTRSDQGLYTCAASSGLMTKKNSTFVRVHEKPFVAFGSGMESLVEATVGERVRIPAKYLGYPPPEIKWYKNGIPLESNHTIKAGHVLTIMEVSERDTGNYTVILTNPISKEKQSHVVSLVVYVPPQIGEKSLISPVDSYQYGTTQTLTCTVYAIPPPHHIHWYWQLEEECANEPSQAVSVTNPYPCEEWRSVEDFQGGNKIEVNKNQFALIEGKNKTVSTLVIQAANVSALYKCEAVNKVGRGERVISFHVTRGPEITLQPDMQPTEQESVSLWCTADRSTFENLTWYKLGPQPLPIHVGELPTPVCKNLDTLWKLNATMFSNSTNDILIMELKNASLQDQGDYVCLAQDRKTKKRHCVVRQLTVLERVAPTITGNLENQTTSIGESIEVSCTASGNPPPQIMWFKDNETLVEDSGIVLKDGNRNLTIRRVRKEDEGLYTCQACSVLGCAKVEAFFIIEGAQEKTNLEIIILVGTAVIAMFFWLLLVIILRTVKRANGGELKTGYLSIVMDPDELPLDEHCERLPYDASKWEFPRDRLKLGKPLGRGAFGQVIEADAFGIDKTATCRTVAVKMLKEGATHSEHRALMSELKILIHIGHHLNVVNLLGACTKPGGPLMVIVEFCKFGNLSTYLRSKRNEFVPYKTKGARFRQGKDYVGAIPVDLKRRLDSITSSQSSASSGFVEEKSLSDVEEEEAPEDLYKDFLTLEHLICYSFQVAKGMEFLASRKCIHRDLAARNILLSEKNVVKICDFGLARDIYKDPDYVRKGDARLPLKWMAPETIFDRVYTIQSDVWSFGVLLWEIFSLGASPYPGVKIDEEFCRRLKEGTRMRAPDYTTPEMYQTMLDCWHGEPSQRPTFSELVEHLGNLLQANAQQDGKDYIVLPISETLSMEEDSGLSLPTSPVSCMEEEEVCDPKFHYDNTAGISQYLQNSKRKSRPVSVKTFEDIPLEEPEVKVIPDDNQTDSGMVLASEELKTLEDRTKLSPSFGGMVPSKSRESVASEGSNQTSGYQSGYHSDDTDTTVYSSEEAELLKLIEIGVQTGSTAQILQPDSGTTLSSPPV

[6] = target: T1, soluble KDR extracellular domain (ECD) …; experiment: High Antigen ELISA, KDR coat 500 ng/mL, supernatant 1:225
Description: as §2

[7] = target: T1, soluble KDR extracellular domain (ECD) …; experiment: High Antigen ELISA, KDR coat 500 ng/mL, supernatant 1:2025
Description: as §2

[8] = target: T1, soluble KDR extracellular domain (ECD) …; experiment: Limited Antigen ELISA, KDR coat 25 ng/mL, supernatant 1:25
Description: as §1

[9] = target: T1, soluble KDR extracellular domain (ECD) …; experiment: Limited Antigen ELISA, KDR coat 12.5 ng/mL, supernatant 1:25
Description: as §1

[10] = target: T1, soluble KDR extracellular domain (ECD) …; experiment: Limited Antigen ELISA, KDR coat 6.25 ng/mL, supernatant 1:25
Description: as §1

[11] = target: T1, soluble KDR extracellular domain (ECD) …; experiment: High Antigen ELISA, KDR coat 500 ng/mL, supernatant 1:6075
Description: as §2

[12] = target: T1, soluble KDR extracellular domain (ECD) …; experiment: High Antigen ELISA, KDR coat 500 ng/mL, supernatant 1:18,225
Description: as §2

[13] = target: T1, soluble KDR extracellular domain (ECD) …; experiment: High Antigen ELISA, KDR coat 500 ng/mL, supernatant 1:25
Description: as §2

Binder | ELISA reading [1] | ELISA reading [2] | ELISA reading [3] | ELISA reading [4] | VEGF-E-mediated Survival % Inhibition (Average) [5] [%] | VEGF-E-mediated Survival % Inhibition (n = 1) [5] [%] | VEGF-E-mediated Survival % Inhibition (n = 2) [5] [%] | ELISA reading [6] | ELISA reading [7] | ELISA reading [8] | ELISA reading [9] | ELISA reading [10] | ELISA reading [11] | ELISA reading [12] | ELISA reading [13]
B1 | 2.65 | 4.43 | 3.36 | 0.23 | 42 | 45 | 40 | 4.14 | 1.66 | 1.47 | 0.81 | 0.38 | 0.56 | 0.25 | 4.45
B2 | 1.83 | 4.19 | 4.02 | 0.15 | 55 | 56 | 53 | 5.57 | 2.91 | 0.97 | 0.52 | 0.23 | 1.17 | 0.54 | 6
B3 | 2.28 | 4.34 | 1.56 | 0.22 | -1 | -3 | 1 | 3.41 | 0.7 | 1.46 | 0.82 | 0.39 | 0.26 | 0.12 | 6
B4 | 2.93 | 5.09 | 4.24 | 0.27 | -24 | -27 | -22 | 6 | 2.79 | 1.51 | 0.79 | 0.48 | 1.02 | 0.82 | 4.66
B5 | 3.36 | 6 | 3.49 | 0.21 | 55 | 57 | 53 | 6 | 1.27 | 1.84 | 0.91 | 0.42 | 0.31 | 0.2 | 6
